Results: paper PMC5562738, “Structural basis for the broad substrate specificity of the human tyrosylprotein sulfotransferase-1” (Scientific Reports, 2017)

Tests used:
[1] = target: recombinant human TPST1 (Lys43-Lys341), as crystallised with PAP and C4P5Y5 (human) (UniProt O60507)
[2] = target: the molecule itself; assay: crystal structure; human TPST1 (2.5 mg/ml) with 2 mM PAP and 1 mM C4P5Y5, sitting-drop vapor diffusion at 20 °C, 0.1 M Tris-HCl pH 8.5; 1.6 Å
[3] = target: the molecule itself; assay: crystal structure; human TPST1 (5.0 mg/ml, His tag removed) with 2 mM PAP and 3 mM gastrin peptide, sitting-drop vapor diffusion at 20 °C, crystals soaked 1 d with 30 mM gastrin peptide; 2.3 Å

gastrin peptide
K m of tyrosine sulfation of the peptide by human TPST1 ([35S]PAPS, TLC, 30 °C, pH 6.0) [1]: 652 µM

B1: recombinant human TPST1 (Lys43-Lys341), as crystallised with PAP and C4P5Y5 (enzyme, UniProt O60507 43-341, looked up)
chain: KLESTRTTVRTGLDLKANKTFAYHKDMPLIFIGGVPRSGTTLMRAMLDAHPDIRCGEETRVIPRILALKQMWSRSSKEKIRLDEAGVTDEVLDSAMQAFLLEIIVKHGEPAPYLCNKDPFALKSLTYLSRLFPNAKFLLMVRDGRASVHSMISRKVTIAGFDLNSYRDCLTKWNRAIETMYNQCMEVGYKKCMLVHYEQLVLHPERWMRTLLKFLQIPWNHSVLHHEEMIGKAGGVSLSKVERSTDQVIKPVNVGALSKWVGKIPPDVLQDMAVIAPMLAKLGYDPYANPPNYGKPDPK
notes: thrombin site after the His tag (pET15b); Ordered in the crystal: Tyr65-Pro338 and Ala64-Gly336; also called tyrosylprotein sulfotransferase-1; core domain of human TPST1; source: Origami (DE3) cells carrying pGro7 (GroEL, GroES), purified (Ni-NTA, Superdex 200)
stoichiometry N [2]: 2

B2: recombinant human TPST1 (Lys43-Lys341), His tag removed, as crystallised with PAP and the gastrin peptide (enzyme, UniProt O60507 43-341, looked up)
chain: B1 chain
notes: also called tyrosylprotein sulfotransferase-1; protomer-1A; source: Origami (DE3) cells carrying pGro7 (GroEL, GroES), purified (Ni-NTA, Superdex 200), His tag removed with bovine thrombin; not shown: 6xHis, N-terminal, cleaved
stoichiometry N [3]: 2
